Assay results: patent US20180273587A1 (AILERON THERAPEUTICS, published 2018)
Positions of bridges follow the written chain, without caps; N, C: chain ends. Non-standard residues stand in square brackets, D forms with d. R8 = C=CCCCCCC[C@@](C)(N)C(=O)O; S5 = C=CCCC[C@](C)(N)C(=O)O; Aib = CC(C)(N)C(=O)O

B1: Cross-linked peptide #15 (peptide)
peptide: Ac-IWIAQALR[R8]IGDEFN[S5]YYARR-NH2
modifications: staple 9-16
SMILES: CC[C@H](C)[C@H](NC(C)=O)C(=O)N[C@@H](Cc1c[nH]c2ccccc12)C(=O)N[C@H](C(=O)N[C@@H](C)C(=O)N[C@@H](CCC(N)=O)C(=O)N[C@@H](C)C(=O)N[C@@H](CC(C)C)C(=O)N[C@@H](CCCNC(=N)N)C(=O)N[C@]1(C)CCCCCCC=CCCC[C@@](C)(C(=O)N[C@@H](Cc2ccc(O)cc2)C(=O)N[C@@H](Cc2ccc(O)cc2)C(=O)N[C@@H](C)C(=O)N[C@@H](CCCNC(=N)N)C(=O)N[C@@H](CCCNC(=N)N)C(N)=O)NC(=O)[C@H](CC(N)=O)NC(=O)[C@H](Cc2ccccc2)NC(=O)[C@H](CCC(=O)O)NC(=O)[C@H](CC(=O)O)NC(=O)CNC(=O)[C@H]([C@@H](C)CC)NC1=O)[C@@H](C)CC
B2: Cross-linked peptide #14 (peptide)
peptide: Ac-RWIAQALR[S5]IGD[S5]LN[Aib]FYAHH-NH2
modifications: staple 9-13
SMILES: CC[C@H](C)[C@H](NC(=O)[C@H](Cc1c[nH]c2ccccc12)NC(=O)[C@H](CCCNC(=N)N)NC(C)=O)C(=O)N[C@@H](C)C(=O)N[C@@H](CCC(N)=O)C(=O)N[C@@H](C)C(=O)N[C@@H](CC(C)C)C(=O)N[C@@H](CCCNC(=N)N)C(=O)N[C@@]1(C)CCCC=CCCC[C@@](C)(C(=O)N[C@@H](CC(C)C)C(=O)N[C@@H](CC(N)=O)C(=O)NC(C)(C)C(=O)N[C@@H](Cc2ccccc2)C(=O)N[C@@H](Cc2ccc(O)cc2)C(=O)N[C@@H](C)C(=O)N[C@@H](Cc2c[nH]cn2)C(=O)N[C@@H](Cc2c[nH]cn2)C(N)=O)NC(=O)[C@H](CC(=O)O)NC(=O)CNC(=O)[C@H]([C@@H](C)CC)NC1=O
B3: Cross-linked peptide #7 (peptide)
peptide: Ac-IWIAQALR[R8]IGDAAN[S5]YYA-NH2
modifications: staple 9-16
SMILES: CC[C@H](C)[C@H](NC(C)=O)C(=O)N[C@@H](Cc1c[nH]c2ccccc12)C(=O)N[C@H](C(=O)N[C@@H](C)C(=O)N[C@@H](CCC(N)=O)C(=O)N[C@@H](C)C(=O)N[C@@H](CC(C)C)C(=O)N[C@@H](CCCNC(=N)N)C(=O)N[C@]1(C)CCCCCCC=CCCC[C@@](C)(C(=O)N[C@@H](Cc2ccc(O)cc2)C(=O)N[C@@H](Cc2ccc(O)cc2)C(=O)N[C@@H](C)C(N)=O)NC(=O)[C@H](CC(N)=O)NC(=O)[C@H](C)NC(=O)[C@H](C)NC(=O)[C@H](CC(=O)O)NC(=O)CNC(=O)[C@H]([C@@H](C)CC)NC1=O)[C@@H](C)CC
B4: Cross-linked peptide #16 (peptide)
peptide: IWIAQALRALGDAFNAYFA
modifications: not fully specified; N-terminal Ac; $r8 at residue 9 (column 154) and $ at residue 16 (column 161), crosslinked; hL at residue 10 (column 155); F4F at residue 18 (column 163); C-terminal NH2
B5: Cross-linked peptide #12 (peptide)
peptide: Ac-IWIAQALR[R8]IGNAFN[S5]YYA-NH2
modifications: staple 9-16
SMILES: CC[C@H](C)[C@H](NC(C)=O)C(=O)N[C@@H](Cc1c[nH]c2ccccc12)C(=O)N[C@H](C(=O)N[C@@H](C)C(=O)N[C@@H](CCC(N)=O)C(=O)N[C@@H](C)C(=O)N[C@@H](CC(C)C)C(=O)N[C@@H](CCCNC(=N)N)C(=O)N[C@]1(C)CCCCCCC=CCCC[C@@](C)(C(=O)N[C@@H](Cc2ccc(O)cc2)C(=O)N[C@@H](Cc2ccc(O)cc2)C(=O)N[C@@H](C)C(N)=O)NC(=O)[C@H](CC(N)=O)NC(=O)[C@H](Cc2ccccc2)NC(=O)[C@H](C)NC(=O)[C@H](CC(N)=O)NC(=O)CNC(=O)[C@H]([C@@H](C)CC)NC1=O)[C@@H](C)CC
B6: Cross-linked peptide #13 (peptide)
peptide: Ac-IWIAQAAR[R8]IGDAFN[S5]YYA-NH2
modifications: staple 9-16
SMILES: CC[C@H](C)[C@H](NC(C)=O)C(=O)N[C@@H](Cc1c[nH]c2ccccc12)C(=O)N[C@H](C(=O)N[C@@H](C)C(=O)N[C@@H](CCC(N)=O)C(=O)N[C@@H](C)C(=O)N[C@@H](C)C(=O)N[C@@H](CCCNC(=N)N)C(=O)N[C@]1(C)CCCCCCC=CCCC[C@@](C)(C(=O)N[C@@H](Cc2ccc(O)cc2)C(=O)N[C@@H](Cc2ccc(O)cc2)C(=O)N[C@@H](C)C(N)=O)NC(=O)[C@H](CC(N)=O)NC(=O)[C@H](Cc2ccccc2)NC(=O)[C@H](C)NC(=O)[C@H](CC(=O)O)NC(=O)CNC(=O)[C@H]([C@@H](C)CC)NC1=O)[C@@H](C)CC
B7: Cross-linked peptide #10 (peptide)
peptide: Ac-IWIAQALR[R8]AGDQFN[S5]YYA-NH2
modifications: staple 9-16
SMILES: CC[C@H](C)[C@H](NC(C)=O)C(=O)N[C@@H](Cc1c[nH]c2ccccc12)C(=O)N[C@H](C(=O)N[C@@H](C)C(=O)N[C@@H](CCC(N)=O)C(=O)N[C@@H](C)C(=O)N[C@@H](CC(C)C)C(=O)N[C@@H](CCCNC(=N)N)C(=O)N[C@]1(C)CCCCCCC=CCCC[C@@](C)(C(=O)N[C@@H](Cc2ccc(O)cc2)C(=O)N[C@@H](Cc2ccc(O)cc2)C(=O)N[C@@H](C)C(N)=O)NC(=O)[C@H](CC(N)=O)NC(=O)[C@H](Cc2ccccc2)NC(=O)[C@H](CCC(N)=O)NC(=O)[C@H](CC(=O)O)NC(=O)CNC(=O)[C@H](C)NC1=O)[C@@H](C)CC
B8: Cross-linked peptide #8 (peptide)
peptide: Ac-IWIAQALR[R8]IGDQAN[S5]YYA-NH2
modifications: staple 9-16
SMILES: CC[C@H](C)[C@H](NC(C)=O)C(=O)N[C@@H](Cc1c[nH]c2ccccc12)C(=O)N[C@H](C(=O)N[C@@H](C)C(=O)N[C@@H](CCC(N)=O)C(=O)N[C@@H](C)C(=O)N[C@@H](CC(C)C)C(=O)N[C@@H](CCCNC(=N)N)C(=O)N[C@]1(C)CCCCCCC=CCCC[C@@](C)(C(=O)N[C@@H](Cc2ccc(O)cc2)C(=O)N[C@@H](Cc2ccc(O)cc2)C(=O)N[C@@H](C)C(N)=O)NC(=O)[C@H](CC(N)=O)NC(=O)[C@H](C)NC(=O)[C@H](CCC(N)=O)NC(=O)[C@H](CC(=O)O)NC(=O)CNC(=O)[C@H]([C@@H](C)CC)NC1=O)[C@@H](C)CC
B9: Cross-linked peptide #11 (peptide)
peptide: Ac-IWIAQALA[R8]IGDAFN[S5]YYA-NH2
modifications: staple 9-16
SMILES: CC[C@H](C)[C@H](NC(C)=O)C(=O)N[C@@H](Cc1c[nH]c2ccccc12)C(=O)N[C@H](C(=O)N[C@@H](C)C(=O)N[C@@H](CCC(N)=O)C(=O)N[C@@H](C)C(=O)N[C@@H](CC(C)C)C(=O)N[C@@H](C)C(=O)N[C@]1(C)CCCCCCC=CCCC[C@@](C)(C(=O)N[C@@H](Cc2ccc(O)cc2)C(=O)N[C@@H](Cc2ccc(O)cc2)C(=O)N[C@@H](C)C(N)=O)NC(=O)[C@H](CC(N)=O)NC(=O)[C@H](Cc2ccccc2)NC(=O)[C@H](C)NC(=O)[C@H](CC(=O)O)NC(=O)CNC(=O)[C@H]([C@@H](C)CC)NC1=O)[C@@H](C)CC
B10: Cross-linked peptide #9 (peptide)
peptide: Ac-IWIAQALR[R8]IADQFN[S5]YYA-NH2
modifications: staple 9-16
SMILES: CC[C@H](C)[C@H](NC(C)=O)C(=O)N[C@@H](Cc1c[nH]c2ccccc12)C(=O)N[C@H](C(=O)N[C@@H](C)C(=O)N[C@@H](CCC(N)=O)C(=O)N[C@@H](C)C(=O)N[C@@H](CC(C)C)C(=O)N[C@@H](CCCNC(=N)N)C(=O)N[C@]1(C)CCCCCCC=CCCC[C@@](C)(C(=O)N[C@@H](Cc2ccc(O)cc2)C(=O)N[C@@H](Cc2ccc(O)cc2)C(=O)N[C@@H](C)C(N)=O)NC(=O)[C@H](CC(N)=O)NC(=O)[C@H](Cc2ccccc2)NC(=O)[C@H](CCC(N)=O)NC(=O)[C@H](CC(=O)O)NC(=O)[C@H](C)NC(=O)[C@H]([C@@H](C)CC)NC1=O)[C@@H](C)CC
B11: Cross-linked peptide #5 (peptide)
peptide: IWIAQALXAIGDAFNAYYA
modifications: N-terminal Ac; Cit at residue 8 (column 153); $r8 at residue 9 (column 154) and $ at residue 16 (column 161), crosslinked; C-terminal NH2

What was measured:
BCL-XL [1] = target: BCL-XL (UniProt Q07817); assay: Ki (Table 8); method not stated
MCL-1 [2] = target: MCL-1 (UniProt Q07820); assay: Ki (Table 8); method not stated
BCL-2 [3] = target: BCL-2 (UniProt P10415); assay: Ki (Table 8); method not stated
BCL-XL [4] = target: T1, BCL-XL (UniProt Q07817 1-209); assay: Ki (Table 8); method not stated
T1 construct: Target of the Ki columns

BCL-2 [5] = target: T2, BCL-2 (UniProt P10415 1-217, limits assumed); assay: Ki (Table 8); method not stated
T2 construct: Target of the Ki columns

MCL-1 [6] = target: T3, MCL-1 (UniProt Q07820 172-327, limits assumed); assay: Ki (Table 8); method not stated
T3 construct: Target of the Ki columns; also called Myeloid cell leukemia 1

BCL-XL [7] = target: T1, BCL-XL; assay: inhibitory constant assay (Table 7); method not stated
BCL-2 [8] = target: T2, BCL-2; assay: as above
MCL-1 [9] = target: T3, MCL-1; assay: as above
BCL-XL [10] = target: T1, BCL-XL; assay: Ki (Table 6); method not stated
BCL-2 [11] = target: T2, BCL-2; assay: Ki (Table 6); method not stated
MCL-1 [12] = target: T3, MCL-1; assay: Ki (Table 6); method not stated

T2 sequence (P10415 1-217 limits assumed): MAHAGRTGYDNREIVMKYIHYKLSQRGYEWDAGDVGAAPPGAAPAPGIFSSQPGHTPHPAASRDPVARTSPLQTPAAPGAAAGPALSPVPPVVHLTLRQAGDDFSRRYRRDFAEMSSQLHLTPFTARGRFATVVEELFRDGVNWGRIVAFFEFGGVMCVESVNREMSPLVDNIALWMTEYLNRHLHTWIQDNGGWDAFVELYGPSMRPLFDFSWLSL
T1 sequence (Q07817 1-209): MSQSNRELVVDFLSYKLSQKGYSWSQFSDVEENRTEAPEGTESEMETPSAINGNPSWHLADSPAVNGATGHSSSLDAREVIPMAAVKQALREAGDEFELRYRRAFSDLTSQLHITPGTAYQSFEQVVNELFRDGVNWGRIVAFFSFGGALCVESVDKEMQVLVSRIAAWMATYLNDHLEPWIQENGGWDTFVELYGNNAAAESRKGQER
T3 sequence (Q07820 172-327 limits assumed): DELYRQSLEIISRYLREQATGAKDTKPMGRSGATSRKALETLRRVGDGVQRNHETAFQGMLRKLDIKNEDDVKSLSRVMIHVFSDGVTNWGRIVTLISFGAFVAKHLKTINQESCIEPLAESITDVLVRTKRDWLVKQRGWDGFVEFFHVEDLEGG
BCL-2 (UniProt P10415), sequence (P10415 1-217 limits assumed): as the sequence (P10415 1-217 limits assumed) above
BCL-XL (UniProt Q07817), sequence (Q07817 1-209): as the sequence (Q07817 1-209) above
MCL-1 (UniProt Q07820), sequence (Q07820 172-327 limits assumed): as the sequence (Q07820 172-327 limits assumed) above

Molecule	Ki (BCL-XL [10]) [nM]	Ki (BCL-2 [11]) [nM]	Ki (MCL-1 [12]) [nM]	also measured
BIM-SAHBA1 (peptide)	–	–	–	Ki (BCL-XL [1]): 6.2 nM; Ki (MCL-1 [2]): 2.7 nM; Ki (BCL-2 [3]): 29.6 nM
B1	–	–	–	Ki (BCL-XL [4]): 5.2 nM; Ki (BCL-2 [5]): 12.8 nM; Ki (MCL-1 [6]): 10.6 nM
B2	–	–	–	Ki (BCL-XL [4]): 114 nM; Ki (BCL-2 [5]): 215 nM; Ki (MCL-1 [6]): 17 nM; Ki (BCL-XL [7]): 178 nM; Ki (BCL-2 [8]): 151 nM; Ki (MCL-1 [9]): 11 nM
B3	402	140	7.5	–
B4	–	–	–	Ki (BCL-XL [4]): 13 nM; Ki (MCL-1 [6]): 27 nM
B5	416	405	195	–
B6	100000	100000	501	–
B7	1.9	4.8	122	–
B8	24.9	43.9	1.4	–
B9	386	1090	73.8	–
B10	7.7	25.6	116	–
B11	110	212	7.5	–
